B1: CD45RO ECD (domain or fragment)
chain: QSPTPSPTDAYLNASETTTLSPSGSAVISTTTIATTPSKPTCDEKYANITVDYLYNKETKLFTAKLNVNENVECGNNTCTNNEVHNLTECKNASVSISHNSCTAPDKTLILDVPPGVEKFQLHDCTQVEKADTTICLKWKNIETFTCDTQNITYRFQCGNMIFDNKEIKLENLEPEHEYKCDSEILYNNHKFTNASKIIKTDFGSPGEPQIIFCRSEAAHQGVITWNPPQRSFHNFTLCYIKETEKDCLNLDKNLIKYDLQNLKPYTKYVLSLHAYIIAKVQRNGSAAMCHFTTKSAPPSQVWNMTVSMTSDNSMHVKCRPPRDRNGPHERYHLEVEAGNTLVRNESHKNCDFRVKDLQYSTDYTFKAYFHNGDYPGEPFILHHSTSYNSK

Tests used:
Test in all cases: SPR
HAdV-D23 E3/49K = HAdV-D23 E3/49K (human adenovirus D23)
HAdV-D53 E3/49K = HAdV-D53 E3/49K (human adenovirus D53)
CD45RO ECD = biological target: B1
SLAMF3 ECD = biological target: T1, SLAMF3 ECD (human, UniProt Q9HBG7 48-454)
T1 chain: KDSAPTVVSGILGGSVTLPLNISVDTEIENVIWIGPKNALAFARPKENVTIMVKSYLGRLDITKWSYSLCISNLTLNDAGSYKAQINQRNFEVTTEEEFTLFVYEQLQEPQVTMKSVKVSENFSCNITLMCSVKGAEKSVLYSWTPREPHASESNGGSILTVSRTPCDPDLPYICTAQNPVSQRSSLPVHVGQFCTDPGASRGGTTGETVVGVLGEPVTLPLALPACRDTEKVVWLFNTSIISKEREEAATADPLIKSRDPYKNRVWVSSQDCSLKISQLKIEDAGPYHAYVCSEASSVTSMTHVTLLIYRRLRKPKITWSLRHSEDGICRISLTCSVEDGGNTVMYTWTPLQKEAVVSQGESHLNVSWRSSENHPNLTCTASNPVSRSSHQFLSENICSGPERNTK

SLAMF6 ECD = biological target: T2, SLAMF6 ECD (human, UniProt Q96DU3 22-226)
T2 chain: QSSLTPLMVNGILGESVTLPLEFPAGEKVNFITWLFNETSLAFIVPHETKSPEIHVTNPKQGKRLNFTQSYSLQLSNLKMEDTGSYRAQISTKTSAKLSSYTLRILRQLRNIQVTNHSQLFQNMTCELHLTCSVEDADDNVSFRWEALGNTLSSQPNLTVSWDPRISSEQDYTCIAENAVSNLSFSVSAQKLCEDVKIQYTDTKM

SLAMF5 ECD = biological target: T3, SLAMF5 ECD (human, UniProt Q9UIB8 22-225)
T3 chain: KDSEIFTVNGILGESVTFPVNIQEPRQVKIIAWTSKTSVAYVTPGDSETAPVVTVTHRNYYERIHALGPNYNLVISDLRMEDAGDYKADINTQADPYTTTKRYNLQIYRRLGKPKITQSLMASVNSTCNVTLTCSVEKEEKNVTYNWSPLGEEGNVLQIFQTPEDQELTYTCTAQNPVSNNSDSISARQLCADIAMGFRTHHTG

SLAMF7 ECD = biological target: T4, SLAMF7 ECD (human, UniProt Q9NQ25 23-226)
T4 chain: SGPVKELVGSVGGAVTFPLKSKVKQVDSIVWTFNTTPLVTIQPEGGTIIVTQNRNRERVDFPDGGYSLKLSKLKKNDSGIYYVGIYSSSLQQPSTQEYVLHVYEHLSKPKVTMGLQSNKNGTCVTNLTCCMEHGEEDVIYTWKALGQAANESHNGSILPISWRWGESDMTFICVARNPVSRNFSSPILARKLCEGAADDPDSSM

SLAMF4 ECD = biological target: T5, SLAMF4 ECD (human, UniProt Q9BZW8 22-229)
T5 chain: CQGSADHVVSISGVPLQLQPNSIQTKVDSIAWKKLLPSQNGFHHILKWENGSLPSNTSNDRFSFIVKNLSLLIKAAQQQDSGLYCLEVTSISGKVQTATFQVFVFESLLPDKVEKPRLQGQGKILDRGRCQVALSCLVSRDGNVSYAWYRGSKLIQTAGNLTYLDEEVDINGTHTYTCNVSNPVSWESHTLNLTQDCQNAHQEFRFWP

SLAMF8 ECD = SLAMF8 ECD (human, UniProt Q9P0V8 23-233)
SLAMF1 ECD = biological target: T6, SLAMF1 ECD (human, UniProt Q13291 21-237)
T6 chain: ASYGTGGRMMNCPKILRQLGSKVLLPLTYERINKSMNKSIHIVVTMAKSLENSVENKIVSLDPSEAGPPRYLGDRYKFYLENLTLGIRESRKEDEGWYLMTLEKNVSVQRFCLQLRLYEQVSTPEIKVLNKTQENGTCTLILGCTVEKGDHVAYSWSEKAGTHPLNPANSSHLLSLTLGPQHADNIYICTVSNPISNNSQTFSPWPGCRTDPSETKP

SLAMF8 ECD, sequence (Q9P0V8 23-233): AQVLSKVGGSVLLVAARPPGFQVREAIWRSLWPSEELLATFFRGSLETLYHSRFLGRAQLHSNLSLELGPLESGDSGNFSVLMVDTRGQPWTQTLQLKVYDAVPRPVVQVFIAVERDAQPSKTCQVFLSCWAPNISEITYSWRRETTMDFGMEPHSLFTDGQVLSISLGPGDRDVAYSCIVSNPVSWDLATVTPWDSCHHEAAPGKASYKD

Binder: B1
- Kd (HAdV-D23 E3/49K): 0.18 nM
- Kd (HAdV-D53 E3/49K): 0.21 nM

B2: HAdV-D30 E3/49K (Fc fusion)
chain: ADPILVSVDWGKNLKLEGPKETPVEWWGGKNIQQLCVGNQTKHKELRHTCNMQNITLLSVNTSFNGDYFGFKNDNSGMKHYKVTVIPPKPTTRKPLPPPHYVNATMGQNLTLVGPANIPVTWLSEFGTLCEGKKILHEELNHTCNEQNLTLLFVNMTHNGPYFGFGKDNVDREQYEVSIISLFKVGAGQKKIDKGQRAEEKTKFNSGDLGRKQSRPKKKDIVDEVQVKSGNNQTLIGPPGKNVDWIKLSSGNDAVVTLCKGDTWIKHTCNGPNVTLINVTKPYEGSYYGSSDDGSSHYKVTVYDLYKSNKSKSKVKPYTTKGTTVNATNANGLKNALQQDGESENDQESKIPSAT
- Kd (CD45RO ECD): 0.19 nM
- Kd (SLAMF3 ECD): 18 nM

B3: HAdV-B55 CR1β (Fc fusion)
chain: QTVVSIPLGHNYTLIGPPITSEVIWTKLGSVDYFDIICNKTKPIIVTCNIQNLTLINVSKVYSGYYYGYDRYSSQYRNYLVRVTQSKTTKMPNMAEIRSDDNSLETFTSSTTPDEKNIPDS
- Kd (SLAMF6 ECD): 13 nM

B4: HAdV-A18 CR1α (Fc fusion)
chain: LSPEEEPNCRPPLTNIKVVLSTTHVTLQCKFFSTQLTWTFNGKNVAEANLKYHINKENITLHSPIHLGYYRCFATPCVQAFFLAPVINPRPATTAQPEKITKLISTAIATTATKGTEEIIYFSNFTTNLLLNCSCSNSLISWFANNTFCKAFFQGTTLYSAKLELCNTSTPSNLTLLPPFVAGRYFCIGAGGHPCQRHWKLVFRPTLVLPTSADPTLSPTPNF
- Kd (SLAMF5 ECD): 2.1 nM
- Kd (SLAMF7 ECD): 137 nM
- Kd (SLAMF6 ECD): 631 nM

B5: HAdV-B1 CR1γ (Fc fusion)
chain: RSHLTVPVGSTCTLQGPQEGYVTWWRIYDNGGFARPCDQPGTKFSCNGRDLTIINITSNEQGFYYGTNYKNSLDYNIIVVPATTSAPRKSTFSSSSAKASTIPKTASAMLKLPKIALSNSTAAPNTIPKST
- Kd (SLAMF7 ECD): 1.5 nM
- Kd (SLAMF3 ECD): 86 nM
- Kd (SLAMF4 ECD): 280 nM
- Kd (SLAMF8 ECD): 60 nM
- Kd (SLAMF1 ECD): 215 nM

— article PMC4858740 (2016)
